B1: library; numbered along this chain (parent)
chain: MRKPRAAVGSGHRKQAASQEGRQKHAKNNSQAKPSACDGLARQPEEVVLQASVSSYHLFRDVAEVTAFRGSLLSWYDQEKRDLPWRRRAEDEMDLDRRAYAVWVSEVMLQQTQVATVINYYTGWMQKWPTLQDLASASLEEVNQLWAGLGYYSRGRRLQEGARKVVEELGGHMPRTAETLQQLLPGVGRYTAGAIASIAFGQATGVVDGNVARVLCRVRAIGADPSSTLVSQQLWGLAQQLVDPARPGDFNQAAMELGATVCTPQRPLCSQCPVESLCRARQRVEQEQLLASGSLSGSPDVEECAPNTGQCHLCLPPSEPWDQTLGVVNFPRKASRKPPREESSATCVLEQPGALGAQILLVQRPNSGLLAGLWEFPSVTWEPSEQLQRKALLQELQRWAGPLPATHLRHLGEVVHTFSHIKLTYQVYGLALEGQTPVTTVPPGARWLTQEEFHTAAVSTAMKKVFRVYQGQQPGTCMGSKRSQVSSPCSRKKPRMGQQVLDNFFRSHISTDAHSLNSAAQ

Variants of: B1
Assay: 8OG:A repair function score (normalized; synonymous = 0, nonsense = -1) (normalized log-likelihood score); higher = more repair activity (WT-like)
Conditions: with 8OG:A DNA repair reporter (GFP) in HEK-293 MUTYH KO cells
Procedure, shortened: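 Lentiviral MUTYH cDNA NNN codon-scan libraries in HEK-293 MUTYH knockout cells (10 pg/ml doxycycline) were co-transfected with an 8OG:A GFP repair reporter plus mCherry. At 72 h, viable mCherry+ cells were sorted into GFP+ (repair) and GFP− bins, three replicates per tile, then tile amplicons were sequenced. Per-tile Rosace fitness scores became a normalized repair function score anchored on synonymous and nonsense distributions. Synonymous medians were set to 0 and nonsense to -1; variants under 300 counts per million at the start were removed.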

8OG:A repair function score: each site, then its substitutions
R219: M -0.571; K -0.381; A -0.563; H -0.593; F -0.485; W -0.783; E -0.837; T -0.638; N -0.877; S -0.772; P -1.02; Q -0.682; I -0.887; D -0.946; Y -0.556; L -0.542; G -0.758; V -0.809; C -0.563
G222: R -0.436; P -0.731; A -0.213; M -0.381; S -0.439; L -0.623; W -0.349; K -0.495; F -0.564; Y -0.461; E -0.565; D -0.733; N -0.593; T -0.547; H -0.56; I -0.608; V -0.622; Q -0.443; C -0.509
A223: C -0.145; L -0.498; S -0.27; P -0.418; F -0.516; H -0.196; I -0.454; K -0.118; W -0.73; M -0.321; D -0.631; Y -0.608; E -0.219; N -0.465; T -0.118; G -0.111; R 0.032; V -0.38; Q -0.0573
D224: T -0.955; A -0.954; W -0.942; I -0.934; R -0.978; P -0.861; E -0.936; K -0.928; H -0.924; M -0.995; Q -0.87; S -0.964; F -0.955; G -0.936; L -0.947; C -0.955; V -0.988; N -0.918; Y -0.939
P225: M -0.186; R -0.147; L 0.119; G -0.342; H -0.374; W -0.322; F -0.222; I 0.0375; S -0.0602; A -0.238; T -0.0501; N -0.234; Q -0.132; D -0.53; V -0.0099; K -0.284; C -0.182; Y 0.0138; E -0.604
R217: F -1.04; Y -1.01; W -0.993; N -1.04; L -1.01; P -1.04; V -1.01; H -0.835; G -1.01; I -1.03; T -1.02; M -0.936; S -1.03; Q -1.03; K -1.03
V218: P -1.04; T -0.283; E -0.985; D -0.983; N -0.444; L -0.178; K -1; S -0.374; A -0.268; M 0.0454; I -0.196; W -0.74; G -0.74; Q -0.472; F -0.436; Y -0.62; C -0.211; R -1.03; H -0.41
I221: R -0.972; S -0.991; W -0.622; N -0.933; K -0.986; P -1.01; D -1.02; H -0.866; A -0.993; L -0.449; V -0.347; Y -0.63; F -0.597; E -0.989; G -0.993; M -0.523; Q -1.03; T -0.889; C -0.728
A220: D -0.821; S -0.411; T -0.62; Q -0.691; M -0.551; E -0.465; F -0.676; I -0.848; K -0.891; C -0.411; G -0.13; V -0.57; R -0.747; Y -0.75; H -0.555; P -0.978; N -0.671; L -0.81; W -0.836
